This is an account of results in patent US8075919B2, “Methods for fabrication, uses and compositions of small spherical particles prepared by controlled phase separation” (Baxter International Inc., priority 2003, dated 2011).

Series [1] relates to DNA-Methyl Green. The settings on record: listed value for the starting material; cited from earlier work.
In series [2] the target is porcine pancreatic elastase (PPE) (Sus scrofa, UniProt P00772). Nature of the series: Inhibition of porcine pancreatic elastase by rAAT (specific activity). In kind it is biochemical. How it is done: To determine the specific activity, the rAAT small spherical particles were dissolved in 0.2M Tris-HCl pH 8.0 at room temperature. The resulting solution was analyzed by an assay which measures the capacity of rAAT to inhibit the ability of porcine pancreatic elastase (PPE) to hydrolyze synthetic peptides that contain a p-nitroanilide group at their C-terminus. The same solution of rAAT small spherical particles was then assayed for protein concentration using the Bicinchoninic Acid (BCA) assay. A control rAAT starting material solution was also analyzed in both assays. Because the activity assay was developed to determine the activity based on a concentration of 1 mg/ml protein per sample, the activity value was corrected based on the actual protein concentration as determined by BCA, giving the specific activity value:
[formula] Inhibition of Porcine Pancreatic Elastase by rAAT

Chain of porcine pancreatic elastase (PPE) (P00772 27-266): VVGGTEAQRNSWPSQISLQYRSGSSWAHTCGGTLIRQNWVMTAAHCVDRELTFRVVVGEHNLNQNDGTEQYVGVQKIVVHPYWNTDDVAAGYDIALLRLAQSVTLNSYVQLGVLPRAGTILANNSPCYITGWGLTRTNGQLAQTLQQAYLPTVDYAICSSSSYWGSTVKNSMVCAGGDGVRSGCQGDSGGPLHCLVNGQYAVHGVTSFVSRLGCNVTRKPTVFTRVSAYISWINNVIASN

For DNase [DNase starting material], in series [1], the “theoretical activity as listed” value was 775 Ku/mg protein.

“alpha-1-antitrypsin [control rAAT starting material]”: the specific activity in series [2] (scale 100-300 mg (n = 12, column)) was found to be 64.34 ± 4.95 IU/mg; in series [2] (scale 200-300 mg (n = 8, vessel)), 65.87 ± 0.98 IU/mg.
